Experimental data as given in the supplement of paper PMC9170038.

Test system: MS2 coat protein
Experiment: apparent KD of MS2 coat protein; higher = weaker reporter binding
Conditions: Eterna round: R107
Outline: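 Designed RNA switches were transcribed on-chip from Illumina sequencing clusters and titrated with SNAP-549-labelled MS2 coat protein in twofold steps from 0.7 or 1.5 nM up to 3 µM. Each step lasted 0.8–1.5 h at first and 10–20 min by the end, in 100 mM Tris-HCl pH 7.5, 80 mM KCl and 4 mM MgCl2, without or with constant ligand. Apparent KD is the median, for each design, of fits to normalised cluster binding curves.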

[1] = input ligand: theophylline 20 uM
[2] = input ligand: theophylline 2 mM
[3] = input ligand: tryptophan 2.4 mM

For “CCGACGAUGACUAUGGGUCAGGAGUGCGCACGAGGACCGGUACGGCCGCCACUCGAGGAGUGGGACAUGAGGAUCACCCAUGUGG [X-TryptA-MS2@65]”, the “apparent KD of MS2 coat protein” value (input ligand: arginine 13.2 mM) was 31.5 nM, the “apparent KD of MS2 coat protein” value (input ligand: none) was 30 nM and the “apparent KD of MS2 coat protein” value [1] was 73.7 nM. The “apparent KD of MS2 coat protein” value [2] was 52.8 nM and the “apparent KD of MS2 coat protein” value [3] was 33.6 nM.
For “AUCAUAAUAGACUCGUUUGAUUAUAUGGAACGAGGACCGGUACGGCCGCCACUCGUGAUUUACAUGAGGAUCACCCAUGUUAGCA [JR_ExcTryptoA_Sub005]”, the “apparent KD of MS2 coat protein” value (input ligand: arginine 13.2 mM) was 17 nM, the “apparent KD of MS2 coat protein” value [1] was 23.5 nM and the “apparent KD of MS2 coat protein” value [2] was 19.4 nM.
“UGACAUUGCUCAGAUACCAGACUUGAGGAUCACCCAAGUGCCAACAAGUAUAUAAUAAAAGUCCCUUGGCAGCUGAGCAAUGUCU [TheoBX 18#MS2Left #AlternativeMS2 #Theo2]” was tested, and the “apparent KD of MS2 coat protein” value (input ligand: arginine 13.2 mM) was 42.7 nM, the “apparent KD of MS2 coat protein” value (input ligand: none) was 28 nM and the “apparent KD of MS2 coat protein” value [1] was 28.6 nM. For the same sequence, the “apparent KD of MS2 coat protein” value [2] was 137 nM and the “apparent KD of MS2 coat protein” value [3] was 17.5 nM.
“UGUAUGUGAUCUGAUACCAGUCCAACUGGUAAAACCUGAGGAUCACCCAGGUAAAAUUGGGACCCUUGGCAGCAGAUCGCAUACU” was tested, and the “apparent KD of MS2 coat protein” value (input ligand: arginine 13.2 mM) was 134 nM, the “apparent KD of MS2 coat protein” value (input ligand: none) was 183 nM and the “apparent KD of MS2 coat protein” value [1] was 130 nM. For the same sequence, the “apparent KD of MS2 coat protein” value [2] was 16.1 nM and the “apparent KD of MS2 coat protein” value [3] was 177 nM.
“GGACUAACCAGAAGGAGCGGCACAGCAGAAACUGCAAAUCCUCCGCACGAGGAUCACCCGUGUCAGGUAGGUCGCUGGUUAGUCG [ArgBX 28]” was tested, and the “apparent KD of MS2 coat protein” value (input ligand: arginine 13.2 mM) was 33.5 nM, the “apparent KD of MS2 coat protein” value (input ligand: none) was 37.1 nM and the “apparent KD of MS2 coat protein” value [1] was 55.4 nM. For the same sequence, the “apparent KD of MS2 coat protein” value [2] was 49.4 nM and the “apparent KD of MS2 coat protein” value [3] was 38.4 nM.
For “GGUGUAAUUGACUCUUUGUUUUAUUUGUAACGAGGACCGGUACGGCCGCCACUCGAUAUUCACAUGAGGAUCACCCAUGUUAGCU [JR_ExcTryptoA_Sub006]”, the “apparent KD of MS2 coat protein” value (input ligand: arginine 13.2 mM) was 19.1 nM, the “apparent KD of MS2 coat protein” value [1] was 22.5 nM and the “apparent KD of MS2 coat protein” value [2] was 24.3 nM.
In the case of “GCUGGACUUUCGGCCGCCACUGAGAGAGUCGUGUGAACAUGAGGAUCACCCAUGUAAUAUAUAUACAGGACCGGGAGGGUUGUGC [4.P]”, the “apparent KD of MS2 coat protein” value (input ligand: arginine 13.2 mM) is reported as 11.2 nM, the “apparent KD of MS2 coat protein” value [1] is reported as 14.7 nM and the “apparent KD of MS2 coat protein” value [2] is reported as 11.6 nM.
For “UGUCAGCGAAAGUUGACAUGUCUUACCGGUCGAGGACCGGUACGGCCGCCACUCGAUCUCUCGCACAUGAGGAUCACCCAUGUUG [SS Tryp A #22]”, the “apparent KD of MS2 coat protein” value (input ligand: arginine 13.2 mM) was 19.3 nM, the “apparent KD of MS2 coat protein” value [1] was 29 nM and the “apparent KD of MS2 coat protein” value [2] was 26.5 nM.
With “AUUAACAUGAGGAUCACCCAUGUUUGUCUCCGAGGACCGGUACGGCCGCCACUCGCAGGUUGGAGUCGCUAUAUGGGCGUUCACU [theeternabot_sameState_MS2_Trp_A_42]” the “apparent KD of MS2 coat protein” value (input ligand: arginine 13.2 mM) was 31.7 nM, the “apparent KD of MS2 coat protein” value [1] was 53.5 nM and the “apparent KD of MS2 coat protein” value [2] was 64.9 nM.
In the case of “GUCUCUGAGAGAAGGAGCGUGAAGACAUGAGGAUCACCCAUGUAGAGGCGCCGACGGCGUUCGCAGGUAGGUCGCUCUCAGAGAC [#1 Same State - Arginine B Attempt #19 (HarryS)]”, the “apparent KD of MS2 coat protein” value (input ligand: arginine 13.2 mM) is reported as 38.4 nM, the “apparent KD of MS2 coat protein” value (input ligand: none) is reported as 22 nM and the “apparent KD of MS2 coat protein” value [1] is reported as 35 nM. For the same sequence, the “apparent KD of MS2 coat protein” value [2] was 17.1 nM and the “apparent KD of MS2 coat protein” value [3] was 23.7 nM.
For “CAUACUUUAGUAUGUUAUGUGGACAGUGAUACCAGAUACGAAAGUAUCCCUUGGCAGCACAACAUGAGGAUCACCCAUGUAAUUU [Theophylline A 5]”, the “apparent KD of MS2 coat protein” value (input ligand: arginine 13.2 mM) was 24.4 nM, the “apparent KD of MS2 coat protein” value [1] was 24.8 nM and the “apparent KD of MS2 coat protein” value [3] was 28.2 nM.
With “GAUGAACUAUUUGAUACCAGACUACAUGAGGAUCACCCAUGUGAGUUUAUACUUCAGUCAGUCCCUUGGCAGCAAAUAGUUUAUC [XTheo B #6]” the “apparent KD of MS2 coat protein” value (input ligand: arginine 13.2 mM) was 38.3 nM, the “apparent KD of MS2 coat protein” value [1] was 60.9 nM and the “apparent KD of MS2 coat protein” value [3] was 42.1 nM.
“AUCGGCCAGGGAAGGAGCGUGAAGACAUGAGGAUCACCCAUGUAGAGGCGCCGAAGGCGUUCGCAGGUAGGUCGCCCUGGCUGAU [#1 Same State - Arginine B Attempt #27 (HarryS)]” was tested, and the “apparent KD of MS2 coat protein” value (input ligand: arginine 13.2 mM) was 14.7 nM, the “apparent KD of MS2 coat protein” value (input ligand: none) was 14.7 nM and the “apparent KD of MS2 coat protein” value [1] was 23.8 nM. For the same sequence, the “apparent KD of MS2 coat protein” value [2] was 17.7 nM and the “apparent KD of MS2 coat protein” value [3] was 15.8 nM.
In the case of “UAAAACAUGAGGAUCACCCAUGUAAAUGAUACCAGAGUGAUGAUCCUCCCUUGGCAGCAUAACGCUGAUUGGAAACAAUCAGCGA [Mat - Same State Theophlline A - Mod of Eli - D23]”, the “apparent KD of MS2 coat protein” value (input ligand: arginine 13.2 mM) is reported as 28.8 nM, the “apparent KD of MS2 coat protein” value [1] is reported as 144 nM and the “apparent KD of MS2 coat protein” value [3] is reported as 75.8 nM.
With “CUGCCACGAACGGCCGCCACUUACAUGAGGAUCACCCAUGUGCCUGCGCACAAAGAAUGUCAAGAAAGGACCGGGUUCAAAUAGU [theeternabot_exclusion_MS2_Trp_B_41]” the “apparent KD of MS2 coat protein” value (input ligand: arginine 13.2 mM) was 43.2 nM, the “apparent KD of MS2 coat protein” value [1] was 177 nM and the “apparent KD of MS2 coat protein” value [2] was 132 nM.
With “ACGCACAUGAGGAUCACCCAUGUGAACCUACGAGGACCGGUACGGCCGCCACUCGCUGUUCCUACCGGCUUAAUUGUCACUGGGU [theeternabot_sameState_MS2_Trp_A_19]” the “apparent KD of MS2 coat protein” value (input ligand: arginine 13.2 mM) was 27.3 nM, the “apparent KD of MS2 coat protein” value [1] was 54.4 nM and the “apparent KD of MS2 coat protein” value [2] was 49 nM.
For “AGUUUAGACACGGCCGCCACUCGUGACAGAUUUAGCAGUGGUCAACAUGAGGAUCACCCAUGUCUGAGGACCGGGUGUUGAGUUU [XTryp B #6]”, the “apparent KD of MS2 coat protein” value (input ligand: arginine 13.2 mM) was 78.9 nM, the “apparent KD of MS2 coat protein” value [1] was 176 nM and the “apparent KD of MS2 coat protein” value [2] was 217 nM.
“UGGUACAUGAGGAUCACCCAUGUGCCGGAUACCAGAGAGCCGGCUCUCCCUUGGCAGCUGGCGCGACAUGAGGAUCACCCAUGUG [Exclusion Theophylline A GF18]” was tested, and the “apparent KD of MS2 coat protein” value (input ligand: arginine 13.2 mM) was 18.1 nM, the “apparent KD of MS2 coat protein” value [1] was 32.2 nM and the “apparent KD of MS2 coat protein” value [3] was 24.6 nM.
